{
  "source": "paper PMC7284770",
  "about": "“Cloning and Expression of a Perilla frutescens Cytochrome P450 Enzyme Catalyzing the Hydroxylation of Phenylpropenes” (Plants, 2020)",
  "test_system": "T1, C=CCc1cc(OC)c2c(c1)OCO2",
  "T1 construct": "full-length, 505 residues, 57 kD, untagged; microsomal fraction of Saccharomyces cerevisiae AH22, vector pGYR-SpeI co-expressing yeast NADPH-P450 reductase",
  "test": "GC-FID product assay, yeast microsomal fraction",
  "assay_type": "biochemical, Perilla frutescens",
  "conditions": "0.5 mM NADPH, 50 mM HEPES/NaOH pH 7.5, 30 °C, 15 min, myristicin 0.2 to 10 µM, co-expressed yeast NADPH-P450 reductase, product 6-allyl-4-methoxy-1,3-benzodioxol-5-ol",
  "description": "GC-FID product assay, yeast microsomal fraction on Pf-49487 (CYP71D558) | We performed kinetic analyses of the Pf-49487 reaction using myristicin as substrate.",
  "data": [
    {"substance": "Pf-49487 (CYP71D558) (Perilla frutescens)", "values": [
      {"measurement": "Km", "value": 9.1, "unit": "µM"},
      {"measurement": "kcat", "value": 0.25, "unit": "s⁻¹"}
    ]}
  ]
}
